Common to all, as to assay: ProtoArray, GST-treated control array;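 also: human protein microarray (about 9500 recombinant proteins) incubated overnight with GST alone plus SAM cofactor as the negative control for G9a SET domain methylation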
One assay addresses CTSZ-Cathepsin Z (human, UniProt Q9UBR2 24-303, limits assumed).
For assay [1], the target named is T1, CUTC-cutC copper transporter homolog (E. coli) (CUTC) (human, UniProt Q9NTM9 1-273).
T1 sequence (looked up): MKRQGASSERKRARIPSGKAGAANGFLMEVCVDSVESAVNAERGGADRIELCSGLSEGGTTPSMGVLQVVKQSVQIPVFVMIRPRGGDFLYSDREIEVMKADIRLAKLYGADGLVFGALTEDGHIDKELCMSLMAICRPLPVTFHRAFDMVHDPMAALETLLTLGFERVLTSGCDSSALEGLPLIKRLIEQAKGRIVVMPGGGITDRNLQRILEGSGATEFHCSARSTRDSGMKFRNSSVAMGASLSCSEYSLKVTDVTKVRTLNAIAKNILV

Assay [2] addresses T2, SSR4-signal sequence receptor, delta (translocon-associated protein delta) (SSR4) (human, UniProt P51571 24-173, limits assumed).
T2 sequence (looked up): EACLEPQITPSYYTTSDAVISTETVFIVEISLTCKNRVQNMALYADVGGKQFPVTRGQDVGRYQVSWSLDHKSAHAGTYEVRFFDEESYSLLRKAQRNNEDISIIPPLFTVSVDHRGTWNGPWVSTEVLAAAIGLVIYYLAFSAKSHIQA

Assay [3] deals with T3, STK17B-Serine/threonine-protein kinase 17B (human, UniProt O94768 1-372).
T3 sequence (looked up): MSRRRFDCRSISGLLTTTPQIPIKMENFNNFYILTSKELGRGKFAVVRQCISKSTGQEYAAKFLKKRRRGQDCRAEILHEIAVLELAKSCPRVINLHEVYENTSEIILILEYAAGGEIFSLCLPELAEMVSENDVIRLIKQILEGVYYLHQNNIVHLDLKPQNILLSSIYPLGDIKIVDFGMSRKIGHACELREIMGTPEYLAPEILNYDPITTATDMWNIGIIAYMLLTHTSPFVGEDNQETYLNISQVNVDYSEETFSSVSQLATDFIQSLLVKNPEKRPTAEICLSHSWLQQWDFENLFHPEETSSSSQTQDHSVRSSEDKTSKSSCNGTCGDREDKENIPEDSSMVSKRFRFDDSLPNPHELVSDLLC

Assay [4] addresses T4, BHMT-betaine-homocysteine methyltransferase (BHMT) (human, UniProt Q93088 1-406).
T4 sequence (looked up): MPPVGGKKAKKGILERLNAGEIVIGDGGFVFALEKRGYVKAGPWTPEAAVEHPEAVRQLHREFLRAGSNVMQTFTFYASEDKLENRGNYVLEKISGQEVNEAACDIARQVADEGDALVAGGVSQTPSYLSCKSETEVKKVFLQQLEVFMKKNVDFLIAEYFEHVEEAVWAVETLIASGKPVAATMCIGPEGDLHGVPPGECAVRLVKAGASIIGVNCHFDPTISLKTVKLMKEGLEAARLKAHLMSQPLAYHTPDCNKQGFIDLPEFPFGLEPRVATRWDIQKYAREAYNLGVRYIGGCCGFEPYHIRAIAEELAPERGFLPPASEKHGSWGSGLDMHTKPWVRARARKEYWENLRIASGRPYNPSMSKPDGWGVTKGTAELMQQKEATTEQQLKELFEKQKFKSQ

The target in assay [5] is T5, GFOD1-Glucose-fructose oxidoreductase domain-containing protein 1 (human, UniProt Q9NXC2 22-390, limits assumed).
T5 sequence (looked up): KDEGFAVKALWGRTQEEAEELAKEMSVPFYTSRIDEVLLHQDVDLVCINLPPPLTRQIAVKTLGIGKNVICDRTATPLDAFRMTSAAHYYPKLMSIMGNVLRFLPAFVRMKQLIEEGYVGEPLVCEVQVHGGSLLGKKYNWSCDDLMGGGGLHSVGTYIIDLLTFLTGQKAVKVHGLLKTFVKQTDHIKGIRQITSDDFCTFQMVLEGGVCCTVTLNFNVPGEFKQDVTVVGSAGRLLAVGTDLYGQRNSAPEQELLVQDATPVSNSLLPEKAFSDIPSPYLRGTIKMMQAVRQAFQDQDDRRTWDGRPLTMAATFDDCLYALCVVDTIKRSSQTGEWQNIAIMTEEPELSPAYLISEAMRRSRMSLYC

Assay [6] concerns the target T6, SH3YL1-SH3 domain containing, Ysc84-like 1 (S. cerevisiae) (SH3YL1) (human, UniProt Q96HL8 1-342, limits assumed).
T6 sequence (looked up): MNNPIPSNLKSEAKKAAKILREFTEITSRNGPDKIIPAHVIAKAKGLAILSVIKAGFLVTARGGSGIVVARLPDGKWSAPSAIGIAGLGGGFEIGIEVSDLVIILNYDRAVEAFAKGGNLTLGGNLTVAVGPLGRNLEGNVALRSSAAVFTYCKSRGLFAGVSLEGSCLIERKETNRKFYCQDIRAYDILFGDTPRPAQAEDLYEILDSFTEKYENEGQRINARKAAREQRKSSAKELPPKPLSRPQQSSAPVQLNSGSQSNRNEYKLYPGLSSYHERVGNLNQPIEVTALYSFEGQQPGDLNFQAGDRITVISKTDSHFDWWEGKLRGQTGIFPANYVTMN

In assay [7] the target is T7, SNFT-Jun dimerization protein p21SNFT (SNFT) (human, UniProt Q9NR55 1-127).
T7 sequence (looked up): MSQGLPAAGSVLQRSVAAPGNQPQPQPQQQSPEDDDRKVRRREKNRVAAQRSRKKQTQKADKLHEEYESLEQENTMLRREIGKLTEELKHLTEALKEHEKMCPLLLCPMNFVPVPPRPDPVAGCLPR

Assay [8] deals with T8, CLDN15-claudin 15 (CLDN15) (human, UniProt P56746 1-228).
T8 sequence (looked up): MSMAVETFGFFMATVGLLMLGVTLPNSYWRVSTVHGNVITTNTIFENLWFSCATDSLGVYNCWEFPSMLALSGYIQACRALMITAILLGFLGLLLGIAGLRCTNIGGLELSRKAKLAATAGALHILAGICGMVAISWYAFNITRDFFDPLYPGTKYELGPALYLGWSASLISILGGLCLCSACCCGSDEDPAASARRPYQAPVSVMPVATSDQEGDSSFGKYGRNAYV

Chain of CTSZ-Cathepsin Z (Q9UBR2 24-303 limits assumed): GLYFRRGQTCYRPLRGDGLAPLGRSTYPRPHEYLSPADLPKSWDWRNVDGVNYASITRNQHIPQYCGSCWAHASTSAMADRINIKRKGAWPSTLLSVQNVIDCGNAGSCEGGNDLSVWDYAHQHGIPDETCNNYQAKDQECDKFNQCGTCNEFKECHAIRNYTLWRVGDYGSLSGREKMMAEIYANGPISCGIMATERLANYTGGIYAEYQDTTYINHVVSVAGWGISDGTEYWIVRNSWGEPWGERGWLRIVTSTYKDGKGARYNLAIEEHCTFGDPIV

B1: 3× Flag-3×MBT (designed binder)
chain: EEWSSSQPATGEKKECWSWESYLEEQKAITAPVSLFQDSQAVTHNKNGFKLGMKLEGIDPQHPSMYFILTVAEVCGYRLRLHFDGYSECHDFWVNANSPDIHPAGWFEKTGHKLQPPKGYKEEEFSWSQYLRSTRAQAAPKHLFVSQSHSPPPLGFQVGMKLEAVDRMNPSLVCVASVTDVVDSRFLVHFDNWDDTYDYWCDPSSPYIHPVGWCQKQGKPLTPPQDYPDPDNFCWEKYLEETGASAVPTWAFKVRPPHSFLVNMKLEAVDRRNPALIRVASVEDVEDHRIKIHFDGWSHGYDFWIDADHPDIHPAGWCSKTGHPLQPPLGPREPSSASPGG
notes: also called Flag-tagged 3×MBT; 3xFlag-3xMBT; not shown: made by PreScission cleavage of GST-3× Flag-3×MBT
Regarding B1, the “GST Average SNR” value with CTSZ-Cathepsin Z amounted to 1.28; in assay [1] it was 0.667; in assay [2], 1.33; in [3], 0.575; in assay [4], 1.44; in assay [5] it was 0.413. The “GST Average SNR” value in assay [6] was 0.377; in assay [7], 1.05; in assay [8], -0.296.
